From patent EP4039268A1 (IMBA-Institut für Molekulare Biotechnologie GmbH, dated 2022) come the findings set out here.

Test [1] deals with T1, human recombinant soluble ACE2 (human, UniProt Q9BYF1 18-740).
T1 construct: also called hrsACE2
The experiment in a line: ELISA. In general terms: An ELISA detects its analyte on a solid surface through an enzyme-linked reagent.

The target of test [2] is T1, human recombinant soluble ACE2. The experiment in a line: ELISA screen.
Test [3] addresses T2, monomeric SARS-CoV-2 receptor binding domain (RBD-H6) (SARS-CoV-2, UniProt P0DTC2 319-541).
T2 construct: Made in HEK293-6E cells; also called RBD Spike; monomeric RBD
Nature of the test: ELISA screen.

Test [4] deals with T3, full-length trimeric SARS-CoV-2 Spike protein (Spike-H6) (SARS-CoV-2, N-glycosylated (22 N-glycosylation sites)).
T3 construct: also called trimeric Spike; full-length Spike-H6
The experiment in a line: ELISA screen.

T1 sequence (Q9BYF1 18-740 limits assumed): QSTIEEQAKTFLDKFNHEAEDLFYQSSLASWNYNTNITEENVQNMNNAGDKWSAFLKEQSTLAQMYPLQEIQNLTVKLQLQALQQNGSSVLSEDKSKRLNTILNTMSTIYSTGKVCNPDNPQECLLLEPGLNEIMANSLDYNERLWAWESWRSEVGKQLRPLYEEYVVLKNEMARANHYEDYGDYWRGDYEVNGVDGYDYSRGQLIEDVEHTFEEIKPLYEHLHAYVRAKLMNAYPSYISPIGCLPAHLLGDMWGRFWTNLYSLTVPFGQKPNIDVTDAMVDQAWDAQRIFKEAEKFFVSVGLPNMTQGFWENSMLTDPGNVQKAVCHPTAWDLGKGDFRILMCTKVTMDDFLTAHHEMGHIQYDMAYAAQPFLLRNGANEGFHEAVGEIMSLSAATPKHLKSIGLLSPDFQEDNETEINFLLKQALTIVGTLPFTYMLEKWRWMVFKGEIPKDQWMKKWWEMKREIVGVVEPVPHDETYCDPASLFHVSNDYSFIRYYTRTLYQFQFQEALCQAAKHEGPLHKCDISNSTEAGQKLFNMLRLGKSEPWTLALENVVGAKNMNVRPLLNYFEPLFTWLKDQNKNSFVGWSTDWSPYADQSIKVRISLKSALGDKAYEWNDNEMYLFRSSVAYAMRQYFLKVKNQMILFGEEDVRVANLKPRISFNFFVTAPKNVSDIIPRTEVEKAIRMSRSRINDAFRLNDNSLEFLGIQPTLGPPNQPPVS

B1: Mrc2_3 CRD-mouse IgG2a-Fc fusion protein (Fc fusion)
chain: HSPSCYWLGEDQVIYSDARRLCTDHGSQLVTITNRFEQAFVSSLIYNWEGEYFWTALQDLNSTGSFRWLSGDEVIYTHWNRDQPGYRRGGCVALATGSAMGLWEVKNCTSFRARYICGGGSGGGSGGGS
Take B1: the binding result in test [1] is listed as “no binding (tested: 10 µg/ml)”. Further, the figures for the “Mean normalized OD” value in test [2], in test [3] and in test [4] were 0.01 OD, 0.003 OD and 0.003 OD, respectively.

B2: Pla2r1_4 CRD-mouse IgG2a-Fc fusion protein (Fc fusion)
chain: GLASCFKVFHSEKVLMKRSWREAEAFCEEFGAHLASFAHIEEENFVNELLHSKFNWTQERQFWIGFNRRNPLNAGSWAWSDGSPVVSSFLDNAYFEEDAKNCAVYKANKTLLPSNCASKHEWICRGGGSGGGSGGGS
In the case of B2, the binding result in test [1] is “no binding (tested: 10 µg/ml)”. The “Mean normalized OD” value came to 0.088 OD in test [2], 0.053 OD in test [3] and 0.063 OD in test [4].

B3: Cd22 CRD-mouse IgG2a-Fc fusion protein (Fc fusion)
chain: SANDWTVDHPQTLFAWEGACIRIPCKYKTPLPKARLDNILLFQNYEFDKATKKFTGTVLYNATKTEKDPESELYLSKQGRVTFLGNRIDNCTLKIHPIRANDSGNLGLRMTAGTERWMEPIHLNVSEGGGSGGGSGGGS
Turning to B3, the binding result in test [1] is recorded as “no binding (tested: 10 µg/ml)”. Besides, the “Mean normalized OD” value in test [2] worked out at 0.006 OD; in test [3] it was 0.004 OD; in test [4] it was 0.027 OD.

B4: Pkd1l3 CRD-mouse IgG2a-Fc fusion protein (Fc fusion)
chain: GGNSCYQLNRLFCDFQEADNYCHAQRGRLAHTWNPKLRGFLKSFLNEETVWWVRGNLTLPGSHPGINQTGGDDVLRNQKPGECPSVVTHSNAVFSRWNLCIEKHHFICQGGGSGGGSGGGS
With B4, the binding result in test [1] is “no binding (tested: 10 µg/ml)”. Further, the “Mean normalized OD” value in test [2] is 0.017 OD; in test [3], -0.001 OD; in test [4], 0.046 OD.

B5: Sele CRD-mouse IgG2a-Fc fusion protein (Fc fusion)
chain: WYYNASSELMTYDEASAYCQRDYTHLVAIQNKEEINYLNSNLKHSPSYYWIGIRKVNNVWIWVGTGKPLTEEAQNWAPGEPNNKQRNEDCVEIYIQRTKDSGMWNDERCNKKKLALCYGGGSGGGSGGGS
Turning to B5, the binding result in test [1] is on record as “no binding (tested: 10 µg/ml)”. Also, the results for the “Mean normalized OD” value in test [2], in test [3] and in test [4] were 0 OD, 0 OD and 0.001 OD, respectively.

B6: Sftpd CRD-mouse IgG2a-Fc fusion protein (Fc fusion)
chain: VGDKIFRTADSEKPFEDAQEMCKQAGGQLASPRSATENAAIQQLITAHNKAAFLSMTDVGTEGKFTYPTGEPLVYSNWAPGEPNNNGGAENCVEIFTNGQWNDKACGEQRLVICEFGGGSGGGSGGGS
Consider B6, for which the binding result in test [1] is given as “no binding (tested: 10 µg/ml)”. Moreover, the “Mean normalized OD” value in test [2] came to 0.016 OD; in test [3] it was 0.002 OD; in test [4], 0.031 OD.

B7: Cd209d CRD-mouse IgG2a-Fc fusion protein (Fc fusion)
chain: FFNGSCYFFSKSQRNWHNSTTACQELGAQLVIIETDEEQTFLQQTSKARGPTWMGLSDMHNEATWHWVDGSPLSPSFTRYWNRGEPNNVGDEDCAEFSGDGWNDLSCDKLLFWICKGGGSGGGSGGGS
Take B7: the binding result in test [1] is on record as “no binding (tested: 10 µg/ml)”. Further, the “Mean normalized OD” value in test [2] was 0.039 OD; in test [3], 0.019 OD; in test [4], 0.01 OD.

B8: Clec10a CRD-mouse IgG2a-Fc fusion protein (Fc fusion)
chain: CCPLHWTEHEGSCYWFSESEKSWPEADKYCRLENSHLVVVNSLEEQNFLQNRLANVVSWIGLTDQNGPWRWVDGTDFEKGFKNWAPLQPDNWFGHGLGGGEDCAHITTGGPWNDDVCQRTFRWICEMGGGSGGGSGGGS
For the molecule B8, the binding result in test [1] is on record as “no binding (tested: 10 µg/ml)”. Further, the “Mean normalized OD” value in test [2] turned out to be 0.125 OD; in test [3] it was 0.064 OD; in test [4], 0.069 OD.

B9: Thbd CRD-mouse IgG2a-Fc fusion protein (Fc fusion)
chain: VEHECFALFQGPATFLDASQACQRLQGHLMTVRSSVAADVISLLLSQSSMDLGPWIGLQLPQGCDDPVHLGPLRGFQWVTGDNHTSYSRWARPNDQTAPLCGPLCVTVSTATEAAPGEPAWEEKPCETETQGFLCEFGGGSGGGSGGGS
For the molecule B9, the binding result in test [1] is “no binding (tested: 10 µg/ml)”. Besides, the entries for the “Mean normalized OD” value in test [2], in test [3] and in test [4] were 0.001 OD, 0 OD and 0.003 OD, respectively.

B10: Pla2r1_7 CRD-mouse IgG2a-Fc fusion protein (Fc fusion)
chain: YGNRTYKIIRGNMTWYAAGKSCRMHRAELASIPDAFHQAFLTVLLSRLGHTHWIGLSTTDNGQTFDWSDGTKSPFTYWKDEESAFLGDCAFADTNGRWHSTACESFLQGAICGGGSGGGSGGGS
Regarding B10, the binding result in test [1] is listed as “no binding (tested: 10 µg/ml)”. For the same molecule, the figures for the “Mean normalized OD” value in test [2], in test [3] and in test [4] were 0 OD, 0 OD and 0.002 OD, respectively.

B11: Mrc2_7 CRD-mouse IgG2a-Fc fusion protein (Fc fusion)
chain: YLNHTFRLLQKPLRWKDALLLCESRNASLAHVPDPYTQAFLTQAARGLQTPLWIGLASEEGSRRYSWLSEEPLNYVSWQDEEPQHSGGCAYVDVDGTWRTTSCDTKLQGAVCGGGSGGGSGGGS
B11: the binding result in test [1] was “no binding (tested: 10 µg/ml)”. Further, the “Mean normalized OD” value came to 0 OD in test [2], 0.002 OD in test [3] and 0.002 OD in test [4].

B12: Mrc2_2 CRD-mouse IgG2a-Fc fusion protein (Fc fusion)
chain: FQGHCYRLQAEKRSWQESKRACLRGGGDLLSIHSMAELEFITKQIKQEVEELWIGLNDLKLQMNFEWSDGSLVSFTHWHPFEPNNFRDSLEDCVTIWGPEGRWNDSPCNQSLPSICKGGGSGGGSGGGS
As for B12, the binding result in test [1] is given as “no binding (tested: 10 µg/ml)”. Further, the “Mean normalized OD” value in test [2] was 0.009 OD; in test [3] it was 0.038 OD; in test [4], 0.017 OD.

B13: Cd72 CRD-mouse IgG2a-Fc fusion protein (Fc fusion)
chain: CCPCGWIPYQERCFYISHTLGSLEESQKYCTSLSSKLAAFDEPSKYYYEVSLPSGLEELLDRSKSYWIQMSKKWRQDSDSQSRHCVRIKTYYQKWERTISKCAELHPCICESGGGSGGGSGGGS
For B13, the binding result in test [1] was “no binding (tested: 10 µg/ml)”. Moreover, the results for the “Mean normalized OD” value in test [2], in test [3] and in test [4] were 0.044 OD, 0.015 OD and 0.033 OD, respectively.

B14: Siglec15 CRD-mouse IgG2a-Fc fusion protein (Fc fusion)
chain: PAQRWSMQVPAEVNAEAGDAAVLPCTFTHPHRHYDGPLTAIWRSGEPYAGPQVFRCTAAPGSELCQTALSLHGRFRLLGNPRRNDLSLRVERLALADSGRYFCRVEFTGDAHDRYESRHGGGSGGGSGGGS
In the case of B14, the binding result in test [1] is recorded as “no binding (tested: 10 µg/ml)”. Also, the “Mean normalized OD” value in test [2] came out at 0.011 OD; in test [3] it was 0.001 OD; in test [4] it was 0.008 OD.

B15: Mbl2 CRD-mouse IgG2a-Fc fusion protein (Fc fusion)
chain: KVGKKYFVSSVKKMSLDRVKALCSEFQGSVATPRNAEENSAIQKVAKDIAYLGITDVRVEGSFEDLTGNRVRYTNWNDGEPNNTGDGEDCVVILGNGKWNDVPCSDSFLAICEGGGSGGGSGGGS
In the case of B15, the binding result in test [1] is “no binding (tested: 10 µg/ml)”. Moreover, the “Mean normalized OD” value in test [2] amounted to 0 OD; in test [3], 0.001 OD; in test [4] it was 0.14 OD.

B16: Pla2r1_5 CRD-mouse IgG2a-Fc fusion protein (Fc fusion)
chain: YQNAEYLFHTHPAEWATFEFVCGWLRSDFLTIYSAQEQEFIHSKIKGLTKYGVKWWIGLEEGGARDQIQWSNGSPVIFQNWDKGREERVDSQRKRCVFISSITGLWGTENCSVPLPSICKGGGSGGGSGGGS
Take B16: in test [1], the binding result is “no binding (tested: 10 µg/ml)”. In addition, the entries for the “Mean normalized OD” value in test [2], in test [3] and in test [4] were 0.065 OD, 0.036 OD and 0.029 OD, respectively.

B17: Selp CRD-mouse IgG2a-Fc fusion protein (Fc fusion)
chain: WTYNYSTKAYSWNNSRVFCRRHFTDLVAIQNKNEIAHLNDVIPFFNSYYWIGIRKINNKWTWVGTNKTLTEEAENWADNEPNNKKNNQDCVEIYIKSNSAPGKWNDEPCFKRKRALCGGGSGGGSGGGS
For B17, in test [1], the binding result is recorded as “no binding (tested: 10 µg/ml)”. In addition, the figures for the “Mean normalized OD” value in test [2], in test [3] and in test [4] were 0 OD, 0.007 OD and 0.014 OD, respectively.

B18: Mrc1_2 CRD-mouse IgG2a-Fc fusion protein (Fc fusion)
chain: YAGHCYRIHREEKKIQKYALQACRKEGGDLASIHSIEEFDFIFSQLGYEPNDELWIGLNDIKIQMYFEWSDGTPVTFTKWLPGEPSHENNRQEDCVVMKGKDGYWADRACEQPLGYICKGGGSGGGSGGGS
Take B18: the binding result in test [1] is given as “no binding (tested: 10 µg/ml)”. In addition, the “Mean normalized OD” value in test [2] was 0 OD; in test [3] it was 0.106 OD; in test [4], -0.028 OD.

B19: Mrc1_1 CRD-mouse IgG2a-Fc fusion protein (Fc fusion)
chain: LTGILYQINSKSALTWHQARASCKQQNADLLSVTEIHEQMYLTGLTSSLSSGLWIGLNSLSVRSGWQWAGGSPFRYLNWLPGSPSSEPGKSCVSLNPGKNAKWENLECVQKLGYICKGGGSGGGSGGGS
On to B19, for which the binding result in test [1] was “no binding (tested: 10 µg/ml)”. Also, the figures for the “Mean normalized OD” value in test [2], in test [3] and in test [4] were 0.161 OD, 0.076 OD and 0.109 OD, respectively.

B20: Ly75_8 CRD-mouse IgG2a-Fc fusion protein (Fc fusion)
chain: FQNSCYNFMITNNRHKTVTPEEVQSTCEKLHSKAHSLSIRNEEENTFVVEQLLYFNYIASWVMLGITYENNSLMWFDKTALSYTHWRTGRPTVKNGKFLAGLSTDGFWDIQSFNVIEETLHFYQGGGSGGGSGGGS
Consider B20, for which, in test [1], the binding result is reported as “no binding (tested: 10 µg/ml)”. Also, the “Mean normalized OD” value in test [2] is 0.054 OD; in test [3], 0.007 OD; in test [4] it was 0.011 OD.
